Numbered stars: 1 amine (or outer) side, 2 acyl side, 3 side chain; on linkers, the order of the positions; unused ones are H or OH. Bridge positions count the residues as written; N and C are the ends. Square brackets hold non-standard residues; d marks the D form. Ends that are not written are not given here. * marks the point of attachment. (2S,3R)βMe2Nal = L-threo-(2S,3R)-β-methyl-2-naphthylalanine, (2S,3R)-2-amino-3-(naphthalen-2-yl)butanoic acid, C[C@H](c1ccc2ccccc2c1)[C@H](N[*:1])C(=O)[*:2]; threo‑(2S,3R)CβMe‑2Nal = threo-(2S,3R)-β-methyl-2-naphthylalanine (L-threo), C[C@H](c1ccc2ccccc2c1)[C@H](N[*:1])C(=O)[*:2]; d2Nal(3S-Me) = C[C@@H](c1ccc2ccccc2c1)[C@@H](N)C(=O)O; Phe(4-CH2NH2) = NCc1ccc(C[C@H](N)C(=O)O)cc1; Tyr(127I) = tyrosine iodinated with ^127I; Phe(4-NH2) = Nc1ccc(C[C@H](N)C(=O)O)cc1; 2Nal = N[C@@H](Cc1ccc2ccccc2c1)C(=O)O; Carbamoyl = NC(=O)*
What was measured:
Assay in all cases: radioligand displacement (125I-[Leu8,D-Trp22,Tyr25]SRIF-28), membrane pellet sections
[1] = target: T1, cloned human SRIF receptor SSTR2 (human, UniProt P30874 1-369)
T1 construct: whole, on cells; assayed as cryostat sections of membrane pellets of the transfected cells; also called hSSTR2
Experimental: (§1) Cells are washed twice with and scraped into ice-cold 0.05 M Tris-HCl (pH 7.4), collected by centrifugation, and homogenized using a rotor/stator/system in the same buffer. After centrifugation at 120 g for 5 min at 4° C., the supernatant is collected and centrifuged again at 48,000 g for 30 min at 4° C. The resulting pellet is resuspended in ice-cold Tris buffer, transferred into a microfuge tube, and centrifuged at 20,000 g for 15 min at 4° C. After withdrawal of the supernatant, the membrane pellet is stored at −80° C.
(§2) Receptor autoradiography is performed on 20 μm thick cryostat sections of the membrane pellets, mounted on microscope slides, and then stored at −20° C. […] Increasing concentrations of the unlabeled peptide are used ranging from 0.1-1000 nM. Unlabeled somatostatin-28 is run in parallel using the same increasing concentrations, as a control. IC₅₀ values are calculated after quantification of the data using a computer-assisted image processing system as known in this art.

[2] = target: T2, cloned human SRIF receptor SSTR3 (human, UniProt P32745 1-418)
T2 construct: whole, on cells; assayed as cryostat sections of membrane pellets of the transfected cells; also called hSSTR3
Experimental: as §1, §2

[3] = target: T3, cloned human SRIF receptor SSTR4 (human, UniProt P31391 1-388)
T3 construct: whole, on cells; assayed as cryostat sections of membrane pellets of the transfected cells; also called hSSTR4
Experimental: as §1, §2

[4] = target: T4, cloned human SRIF receptor SSTR5 (human, UniProt P35346 1-364)
T4 construct: whole, on cells; assayed as cryostat sections of membrane pellets of the transfected cells; also called hSSTR5
Experimental: as §1, §2

[5] = target: T5, cloned human SRIF receptor SSTR1 (human, UniProt P30872 1-391)
T5 construct: whole, on cells; also called hSSTR1
Experimental: as §1, §2

T5 sequence (P30872 whole entry): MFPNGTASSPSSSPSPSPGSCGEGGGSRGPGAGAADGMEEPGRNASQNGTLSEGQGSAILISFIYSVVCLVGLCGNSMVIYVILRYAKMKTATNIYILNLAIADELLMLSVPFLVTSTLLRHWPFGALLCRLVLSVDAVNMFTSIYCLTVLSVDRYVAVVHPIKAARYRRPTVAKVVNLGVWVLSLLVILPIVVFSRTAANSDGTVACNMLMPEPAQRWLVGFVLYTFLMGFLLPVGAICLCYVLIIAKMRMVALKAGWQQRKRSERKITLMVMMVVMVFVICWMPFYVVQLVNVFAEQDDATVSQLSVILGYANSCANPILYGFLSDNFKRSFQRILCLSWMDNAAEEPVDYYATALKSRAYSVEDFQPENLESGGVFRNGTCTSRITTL
T4 sequence (P35346 whole entry): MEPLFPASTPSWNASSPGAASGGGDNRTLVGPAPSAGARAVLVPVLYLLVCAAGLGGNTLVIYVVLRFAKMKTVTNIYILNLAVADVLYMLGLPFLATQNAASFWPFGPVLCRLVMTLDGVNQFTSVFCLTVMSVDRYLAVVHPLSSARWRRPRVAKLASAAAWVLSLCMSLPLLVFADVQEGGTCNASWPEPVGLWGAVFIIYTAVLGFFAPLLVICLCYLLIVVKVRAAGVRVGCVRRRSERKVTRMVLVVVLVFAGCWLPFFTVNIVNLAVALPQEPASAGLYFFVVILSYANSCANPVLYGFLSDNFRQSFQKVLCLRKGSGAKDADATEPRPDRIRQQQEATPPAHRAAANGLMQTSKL
T2 sequence (P32745 whole entry): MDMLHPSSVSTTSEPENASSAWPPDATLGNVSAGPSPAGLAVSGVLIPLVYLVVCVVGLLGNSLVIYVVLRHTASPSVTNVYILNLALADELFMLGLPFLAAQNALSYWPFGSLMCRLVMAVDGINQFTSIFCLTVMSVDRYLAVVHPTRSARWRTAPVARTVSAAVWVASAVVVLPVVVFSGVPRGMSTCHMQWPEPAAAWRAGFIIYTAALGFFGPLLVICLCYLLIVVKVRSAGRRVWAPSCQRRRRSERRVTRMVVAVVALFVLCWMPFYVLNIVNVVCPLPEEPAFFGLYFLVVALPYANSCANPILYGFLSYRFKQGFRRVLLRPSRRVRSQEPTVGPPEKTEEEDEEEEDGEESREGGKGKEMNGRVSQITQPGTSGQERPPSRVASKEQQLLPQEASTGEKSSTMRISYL
T1 sequence (P30874 whole entry): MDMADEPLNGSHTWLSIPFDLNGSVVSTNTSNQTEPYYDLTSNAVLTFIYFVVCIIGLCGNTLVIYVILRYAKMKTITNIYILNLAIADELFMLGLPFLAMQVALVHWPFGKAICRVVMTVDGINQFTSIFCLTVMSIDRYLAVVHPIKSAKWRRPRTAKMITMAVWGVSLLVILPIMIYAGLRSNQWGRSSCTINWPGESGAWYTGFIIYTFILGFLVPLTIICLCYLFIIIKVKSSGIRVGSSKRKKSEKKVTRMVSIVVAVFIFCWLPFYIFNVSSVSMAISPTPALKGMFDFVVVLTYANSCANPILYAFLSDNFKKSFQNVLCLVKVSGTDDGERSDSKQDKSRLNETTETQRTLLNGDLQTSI
T3 sequence (P31391 whole entry): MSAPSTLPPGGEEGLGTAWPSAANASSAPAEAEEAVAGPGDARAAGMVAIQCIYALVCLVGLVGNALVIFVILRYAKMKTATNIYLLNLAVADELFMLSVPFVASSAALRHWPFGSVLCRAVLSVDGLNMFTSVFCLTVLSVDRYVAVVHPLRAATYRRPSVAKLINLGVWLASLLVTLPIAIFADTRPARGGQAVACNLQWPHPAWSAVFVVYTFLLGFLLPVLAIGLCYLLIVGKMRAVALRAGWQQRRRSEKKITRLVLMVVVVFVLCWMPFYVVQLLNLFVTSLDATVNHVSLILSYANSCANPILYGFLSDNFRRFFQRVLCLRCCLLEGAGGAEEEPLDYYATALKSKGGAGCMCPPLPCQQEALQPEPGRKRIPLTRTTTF

IC50 [1]	IC50 [2]	IC50 [3]	IC50 [4]	IC50 [5]	Binder
183 nM	897 nM	0.98 nM	199 nM	–	H-CFA[dW]KTFC-OH (disulfide 1-8; SMILES C[C@@H]1NC(=O)[C@H](Cc2ccccc2)NC(=O)[C@@H](N)CSSC[C@@H](C(=O)O)NC(=O)[C@H](Cc2ccccc2)NC(=O)[C@H]([C@@H](C)O)NC(=O)[C@H](CCCCN)NC(=O)[C@@H](Cc2c[nH]c3ccccc23)NC1=O, synthetic cyclic octapeptide; also called Peptide 11; Peptide No. 11) [(cyclo)H-Cys-Phe-Ala-D-Trp-Lys-Thr-Phe-Cys-OH]
–	–	3.5 nM	–	–	H-CFAWKTAC-OH (disulfide 1-8, synthetic cyclic octapeptide; also called Peptide 12A; Peptide No. 12A) [(cyclo)H-Cys-Phe-Ala-Trp-Lys-Thr-Ala-Cys-OH]
–	–	9.5 nM	–	–	CFA[dW]KTAC-OH (disulfide 1-8, synthetic cyclic octapeptide; also called Peptide No. 12B) [(cyclo)Cys-Phe-Ala-D-Trp-Lys-Thr-Ala-Cys-OH]
194 nM	825 nM	2.8 nM	360 nM	–	H-CFY[threo‑(2S,3R)CβMe‑2Nal]KTFC-OH (disulfide 1-8; SMILES C[C@H](c1ccc2ccccc2c1)[C@@H]1NC(=O)[C@H](Cc2ccc(O)cc2)NC(=O)[C@H](Cc2ccccc2)NC(=O)[C@@H](N)CSSC[C@@H](C(=O)O)NC(=O)[C@H](Cc2ccccc2)NC(=O)[C@H]([C@@H](C)O)NC(=O)[C@H](CCCCN)NC1=O, later-eluting isomer, determined to incorporate the L-threo-β-Me-2Nal residue; also called Peptide No. 17A; 17a) [(cyclo)H-Cys-Phe-Tyr-threo-(2S,3R)C^βMe-2Nal-Lys-Thr-Phe-Cys-OH]
700 nM	980 nM	2.36 nM	–	–	Carbamoyl-YCFAWKTFC-OH (disulfide 2-9, synthetic cyclic nonapeptide; also called Peptide No. 13B) [(cyclo)Cbm-Tyr-Cys-Phe-Ala-Trp-Lys-Thr-Phe-Cys-OH]
259 nM	326 nM	2.4 nM	–	–	H-YCF[Phe(4-CH2NH2)]WKTFC-OH (disulfide 2-9, here position 7 is 4Amp; also called Peptide 15; Peptide No. 15) [(cyclo)H-Tyr-Cys-Phe-4 Amp-Trp-Lys-Thr-Phe-Cys-OH]
–	1020 nM	3.5 nM	–	–	[Tyr(127I)]CFAWKTFC (disulfide 2-9, also called Peptide No. 13A; the I-Tyr^2 analog) [Peptide No. 13 iodinated with ^127I]
550 nM	210 nM	1.2 nM	–	347 nM	Carbamoyl-YCF[Phe(4-NH2)]WKTFC-OH (disulfide 2-9, synthetic cyclic nonapeptide; also called Peptide No. 8) [(cyclo)Cbm-Tyr-Cys-Phe-4Aph-Trp-Lys-Thr-Phe-Cys-OH]
120 nM	650 nM	1.1 nM	103 nM	840 nM	Carbamoyl-CF[Phe(4-NH2)][dW]KTFC-OH (disulfide 1-8; SMILES C[C@@H](O)[C@@H]1NC(=O)[C@H](CCCCN)NC(=O)[C@@H](Cc2c[nH]c3ccccc23)NC(=O)[C@H](Cc2ccc(N)cc2)NC(=O)[C@H](Cc2ccccc2)NC(=O)[C@@H](NC(N)=O)CSSC[C@@H](C(=O)O)NC(=O)[C@H](Cc2ccccc2)NC1=O, synthetic cyclic octapeptide; also called Peptide No. 4) [(cyclo)Cbm-Cys-Phe-4Aph-D-Trp-Lys-Thr-Phe-Cys-OH]
339 nM	664 nM	3.5 nM	668 nM	–	H-[dC]FY[(2S,3R)βMe2Nal]KTFC-OH (disulfide 1-8; SMILES C[C@H](c1ccc2ccccc2c1)[C@@H]1NC(=O)[C@H](Cc2ccc(O)cc2)NC(=O)[C@H](Cc2ccccc2)NC(=O)[C@H](N)CSSC[C@@H](C(=O)O)NC(=O)[C@H](Cc2ccccc2)NC(=O)[C@H]([C@@H](C)O)NC(=O)[C@H](CCCCN)NC1=O, also called Peptide No. 16A; Peptide 16A) [(cyclo)H-D-Cys-Phe-Tyr-threo-(2S,3R)C^βMe-2Nal-Lys-Thr-Phe-Cys-OH]
–	630 nM	2.9 nM	610 nM	~1100 nM	H-CF[Phe(4-NH2)][2Nal]KTFC-OH (disulfide 1-8; SMILES C[C@@H](O)[C@@H]1NC(=O)[C@H](CCCCN)NC(=O)[C@H](Cc2ccc3ccccc3c2)NC(=O)[C@H](Cc2ccc(N)cc2)NC(=O)[C@H](Cc2ccccc2)NC(=O)[C@@H](N)CSSC[C@@H](C(=O)O)NC(=O)[C@H](Cc2ccccc2)NC1=O, synthetic cyclic octapeptide; also called Peptide 5; Peptide No. 5) [(cyclo)H-Cys-Phe-4Aph-2Nal-Lys-Thr-Phe-Cys-OH]
30 nM	18 nM	2.3 nM	18 nM	410 nM	H-CFY[d2Nal(3S-Me)]KTFC-OH (disulfide 1-8; SMILES C[C@@H](O)[C@@H]1NC(=O)[C@H](CCCCN)NC(=O)[C@@H]([C@@H](C)c2ccc3ccccc3c2)NC(=O)[C@H](Cc2ccc(O)cc2)NC(=O)[C@H](Cc2ccccc2)NC(=O)[C@@H](N)CSSC[C@@H](C(=O)O)NC(=O)[C@H](Cc2ccccc2)NC1=O, also called Peptide No. 17) [(cyclo)H-Cys-Phe-Tyr-threo-(2R,3S)C^βMe-2Nal-Lys-Thr-Phe-Cys-OH]
807 nM	750 nM	0.84 nM	633 nM	–	H-CFAWKTFC-OH (disulfide 1-8; SMILES C[C@@H]1NC(=O)[C@H](Cc2ccccc2)NC(=O)[C@@H](N)CSSC[C@@H](C(=O)O)NC(=O)[C@H](Cc2ccccc2)NC(=O)[C@H]([C@@H](C)O)NC(=O)[C@H](CCCCN)NC(=O)[C@H](Cc2c[nH]c3ccccc23)NC1=O, synthetic cyclic octapeptide; also called Peptide No. 12) [des-AA^1,2,4,5,12,13-[Ala^7]SRIF, (cyclo)H-Cys-Phe-Ala-Trp-Lys-Thr-Phe-Cys-OH]
71 nM	271 nM	0.88 nM	30 nM	450 nM	H-CF[Phe(4-NH2)][dW]KTFC-OH (disulfide 1-8, synthetic cyclic octapeptide; also called Peptide No. 2) [(cyclo)H-Cys-Phe-4Aph-D-Trp-Lys-Thr-Phe-Cys-OH]
260 nM	135 nM	1.9 nM	–	270 nM	H-YCF[Phe(4-NH2)]WKTFC-OH (disulfide 2-9, synthetic cyclic nonapeptide; also called Peptide No. 6) [(cyclo)H-Tyr-Cys-Phe-4Aph-Trp-Lys-Thr-Phe-Cys-OH]
12 nM	14 nM	0.55 nM	27 nM	545 nM	H-[dC]FY[d2Nal(3S-Me)]KTFC-OH (disulfide 1-8, also called Peptide No. 16) [(cyclo)H-D-Cys-Phe-Tyr-threo-(2R,3S)C^βMe-2Nal-Lys-Thr-Phe-Cys-OH]
347 nM	–	1.2 nM	–	213 nM	H-CF[Phe(4-NH2)]WKTFC-OH (disulfide 1-8, synthetic cyclic octapeptide, free N-terminus and free acid C-terminus; also called Peptide No. 1) [des-AA^1,2,4,5,12,13[4Aph^7]-SRIF, (cyclo)H-Cys-Phe-4Aph-Trp-Lys-Thr-Phe-Cys-OH]
227 nM	–	4.3 nM	110 nM	–	Carbamoyl-CF[Phe(4-NH2)][dW]KTYC-OH (disulfide 1-8, synthetic cyclic octapeptide; also called Peptide No. 10A) [(cyclo)Cbm-Cys-Phe-4Aph-D-Trp-Lys-Thr-Tyr-Cys-OH]
170 nM	–	1.1 nM	240 nM	327 nM	H-CF[Phe(4-NH2)]WKTYC-OH (disulfide 1-8, synthetic cyclic octapeptide; also called Peptide 9; Peptide No. 9) [(cyclo)H-Cys-Phe-4Aph-Trp-Lys-Thr-Tyr-Cys-OH]
–	–	3 nM	557 nM	757 nM	Carbamoyl-CF[Phe(4-NH2)]WKTYC-OH (disulfide 1-8, synthetic cyclic octapeptide; also called Peptide No. 10) [(cyclo)Cbm-Cys-Phe-4Aph-Trp-Lys-Thr-Tyr-Cys-OH]
–	780 nM	1.46 nM	–	650 nM	Carbamoyl-CF[Phe(4-NH2)]WKTFC-OH (disulfide 1-8, synthetic cyclic octapeptide; also called Peptide No. 3) [(cyclo)Cbm-Cys-Phe-4Aph-Trp-Lys-Thr-Phe-Cys-OH]
118 nM	197 nM	3.2 nM	–	–	Carbamoyl-YCF[Phe(4-CH2NH2)]WKTFC-OH (disulfide 2-9, synthetic cyclic nonapeptide; also called Peptide No. 15A) [(cyclo)Cbm-Tyr-Cys-Phe-Amp-Trp-Lys-Thr-Phe-Cys-OH]
56 nM	263 nM	1.2 nM	–	517 nM	H-YCF[Phe(4-NH2)][dW]KTFC-OH (disulfide 2-9, synthetic cyclic nonapeptide; also called Peptide No. 7) [(cyclo)H-Tyr-Cys-Phe-4Aph-D-Trp-Lys-Thr-Phe-Cys-OH]
622 nM	621 nM	1.98 nM	–	–	H-YCFAWKTFC-OH (disulfide 2-9, synthetic cyclic nonapeptide; also called Peptide No. 13) [(cyclo)H-Tyr-Cys-Phe-Ala-Trp-Lys-Thr-Phe-Cys-OH]
57 nM	347 nM	1.1 nM	–	330 nM	H-YCFA[dW]KTFC-OH (disulfide 2-9, synthetic cyclic nonapeptide; also called Peptide No. 14) [(cyclo)H-Tyr-Cys-Phe-Ala-D-Trp-Lys-Thr-Phe-Cys-OH]

— patent US20050245438A1 (SALK INSTITUTE FOR BIOLOGICAL STUDIES, published 2005)
